The record followed here is paper PMC5296763, “Structural basis for redox sensitivity in Corynebacterium glutamicum diaminopimelate epimerase: an enzyme involved in L-lysine biosynthesis” (Scientific Reports, 2017).

One data set has as its target T1, CgDapF (Corynebacterium glutamicum, UniProt Q8NP73).
T1 construct: gene dapF
Kind of data set: X-ray crystal structure, […] A. The class given is binding. The conditions noted are these: crystallised with a 10 mM DAP isomer mixture (L,L, D,D, D,L), pH 9.0; only D,L-DAP density seen; active site.

Substrate in the data set “purified protein”: N[C@@H](CCC[C@H](N)C(=O)O)C(=O)O
Briefly: purified protein. The conditions noted are these: 0.1 M potassium phosphate, pH 8.0, room temperature, 3.45 uM enzyme, substrate named in the assay method. The class given is biochemical, Corynebacterium glutamicum.

Data set [1] concerns the molecule itself. Briefly: SEC; size-exclusion chromatography under both the oxidized and the reduced conditions; data not shown.

As for `N[C@H](CCC[C@H](N)C(=O)O)C(=O)O` [D,L-DAP], at CgDapF, the “X-ray crystal structure, 2.6 A” value is recorded as “we determined the crystal structure of the protein in complex with the D,L-DAP product”.

B1: CgDapF (Corynebacterium glutamicum ATCC 13032) (protein)
chain: MNLTIPFAKGHATENDFIIIPDEDARLDLTPEMVVTLCDRRAGIGADGILRVVKAADVEGSTVDPSLWFMDYRNADGSLAEMCGNGVRLFAHWLYSRGLVDNTSFDIGTRAGVRHVDILQADQHSAQVRVDMGIPDVTGLSTCDINGQVFAGLGVDMGNPHLACVVPGLSASALADMELRAPTFDQEFFPHGVNVEIVTELEDDAVSMRVWERGVGETRSCGTGTVAAACAALADAGLGEGTVKVCVPGGEVEVQIFDDGSTLTGPSAIIALGEVQI
Regarding B1, in the data set “purified protein”, the Michaelis-Menten constant (Km) turned out to be 1860 µM and the kcat was 58 s⁻¹.

B2: Diaminopimelate epimerase (DapF) from Corynebacterium glutamicum (enzyme, UniProt Q8NP73 1-277, looked up)
chain: B1 chain
modifications: selenomethionine-substituted (SeMet derivative) in the crystals of the oxidized and reduced forms (5H2G, 5H2Y)
notes: Diaminopimelate epimerase (DapF, EC 5.1.1.7) of Corynebacterium glutamicum strain ATCC 13032, gene amplified from genomic DNA and cloned in pET30a; also called CgDapF; DAP epimerase; source: E. coli B834(DE3), purified (Ni-NTA, size-exclusion chromatography on Superdex 200); not shown: His tag (from the Ni-NTA purification)
In the case of B2, in data set [1], the “stoichiometry N” value is 2.
